From the nanobody polyreactivity screen of Harvey et al. (2022)

Assay: yeast display, Sf9 membrane polyspecificity reagent, FACS + sequencing; frameworks hold sequencing errors
Method in brief: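 In a synthetic yeast display library (Saccharomyces cerevisiae BJ5465), nanobody expression was induced with galactose for 36–48 hours. FACS gates were set low and high (top ~1%) using anti-HA fluorescence for expression and streptavidin fluorescence for binding of the Sf9 membrane reagent. Each polyreactivity label is drawn from the gate of origin.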

Row | Sequence | polyreactivity (PSR sort gate)
1 | QVLLVESGGGLVQAGGSLRLSCAASGFIFDVYAMGWYRQAPGKERELVAAISSSGGRKYYADSVKGRFTISRDNAKNTVYLQMNSLKPEDTAVYYCAAKTHSRTKVYTADYWGQGTQVTVSS | high polyreactivity
2 | QVQLVESGGGLVQAGGSLRLSCAASGSTFISNTMGWYRQAPGKERELVAAITRTGGRTYYADSVKGRFTISRDNAKNTVYLQMNSLKPEDTAVYYCARYGGYWSLKYDYWGQGTQVTVSS | high polyreactivity
3 | QDQLVDSGGGLVQAGGSLRLSCGASGSTFRKYAMGWYRQAPGQEREFVAAITWSTGTTYYADSVKGRFTISRDNAKNTVYLQMNSLKREDTAVYYCAADSQPPHDLYESIEHESWGLGTQVTVSS | low polyreactivity
4 | QVQLVESGGGLVQAGGSLSLSCAASGFTFAFYAMGWYRQAPGKERELVAAISWDGVTTYYADSVKGRFTISRDNAKNTVYLQMNSLKPEDTAVYYCAADYPDYAGSFWPSGMYYWGQGTQVTVSS | low polyreactivity
5 | QVQLVESGGGLVQAGGSLRLSCAASGITFLFYARGWYRKAPGKERELVAAISSGDNTYYADSVKGRFTISRDNGKNTVYLQMKSLKPDDTAVYYCAAEKYGYDYWGQGTQVTVSS | low polyreactivity
6 | QVQLVESGGGLVQAGGSLRLSCAASGRIFGVNAMGWYRPAPGKERELVAHIRSSGASTYYADSVKGRFTISRDNAKNTVYLQMNSLKPEDTAVYYCARDYFVDGPGYDYWGQGTQVTVSS | low polyreactivity
7 | QVQLVESGGGLVQAGGSLRLSCAASGRTFYGYAMGWYRQAPGKERELVAVITRDGSTNYADSVKGRFTISRDNAKNTVYLQMNSLKPEDTAVYYCAAERLAYRVRWRYNQEDYWGQGTQVTVSS | high polyreactivity
8 | QVQLVESGGGLVQAGGSLRLSCAASGSILYHYAMGWYRQAPGKERELVAGISWRGGSTYYADSVKGRFTISRDNAMNTVYLQMNSLKPEDTAVYYCATLRYPYRFYAFQYYYWGQGTQVTVSS | low polyreactivity
9 | QVQLVESRGGLVQAGGSLRLSCAASGRNFPINTMGWYRQAPGKERELVAAIRTSGSSTYADSVKGRFTISRDNAKNSVYLQMNSLKPEDTAVYYCNTKYPGRGYYWGQGTQVTVSS | high polyreactivity
10 | QVQLVESGGGLVQAGGSLRLSCAASGRIFAYYTMGWYRQAPGKERELVATISGSGASTYYADSVKGRFTISRDNAKNTDYLQMNSLKPEDTAVYYCAATRFYATIYDYWGQGTQVTVSS | high polyreactivity
11 | QVQLVESGGGLVQAGGSLRLSCAASGGTFYVNAMGWYRQAPGKERELVAAISYRGGRTYYADSVKGRFTISRDNAKNTVYVQMNSVKPEDTAVYYCAAEYSYDHSTGYDYWGQGTQVTVSS | low polyreactivity
12 | QVQLVESGGGLVQAGGSLRLSCAASGSIFYRYAMGWYREAPGKERELVAAISSSGGSTYYADSVKGRFTISRDNAKNTVYSQMNSLKPEDTAVYYCNTDRYYTYDYWGQGTQVTVSS | low polyreactivity
13 | QVQLVESGGGLVQAGGSLRLSCAASGSIFGYYTMGWYRQAPGKERELVAGITSTGNTNYADSVKGRFTISRDNAKNTVYLQMNSLKPEDTAVYYCAADSESTWDYGWELEVGYDYWGQGTQVTVSS | low polyreactivity
14 | QVQLVESGGGLVQAGGSLRLICAASGSTFPTYAMGWYRQAPGKERELVAAIDSSGGNTYYADSVKGRFTISRDNAKNTVYLQMNSLKPEDTEVYYCARESVTYFWYYTPEVDYWGQGTQVTVSS | low polyreactivity
15 | QVQLVESGGGLVQAGGSLRLSCAASGSTFQVYAMGWYRQAPGKERELVAAISNGGRTNYADSVKGRFTISRDNAKNTVYLQMNSLKPEDTAVYYCNADQVWWSFDRVLVGYEYWGQGTQVTVSS | low polyreactivity
16 | QVQLVESGGGLVQAGGSLRLSCAASGRIFSGYAMGWYRQAPGKERELVAAITSRSGSTYYADSVKGRFTISRDNAKNTVYLQMNSLKPEDTAVYYCAAEYVRFYWYTSDYWGQGTQVTVSS | low polyreactivity
17 | QDQLVESGGGLVQAGGSLRLSFAASGLTFRYYAMGWYRQAPGKERELVAAISSGGRTDYADSVKGRFTISRDNAKNTVYLQMNSLKPEDTAVYYCNARGRIRSYRQVRTYSAYNYWGQGTQVTVSS | high polyreactivity
18 | QVQLVESGGGLVQAGGSLRLSCAASGRTFFDHALGWYRPAPGKERELVAAITSVGSTYYADSVKGRFTISRDNAKNTVYLQMNSLKPEDTAVYYCAAHRHIHYTDARMDYWGQGTQVTVSS | low polyreactivity
19 | QVQLVESGGGLDQAGGSLRLSCAASGLTLAVNAMGCYRQAPGKERELVAAISRRGGSTYYADSVKGRFTISRDNSKNPVYLQMNSLKPEDTAVYYCAAKYNYSEMDSWGQGTQVTVSS | high polyreactivity
20 | QVQLVESGGGLVQAGGSLRLSCAASGYTFAYYTMGWYRQAPGKERELVAAINRSGGSTNYADSVKGRFTISRDNAKNTVYLQMNSLKPEDTAVYYCAADYFFRRGPGAVFIGRYGYWGQGTQVTVSS | high polyreactivity
21 | QVQLVESGGGLVQAGGSLRLSCAASGNTFASNAMGWYRQAPGKERELVATISTSGTTYYADSVKGRFTISRDNAKNTVYLQMNSLKPEDTAVYYCARTFKSRRGSRGYYWGQGTQVTVSS | high polyreactivity
22 | QVQLVESGGGLVQAGGSLRLSCAASGIIFYGYAMGWYRQAPAKERELVAAITYSGGSTYYADSVKGRFTISRDNAKNTVYLQMNSLKPEDTAVYYCDAYDAYSPYLALYDYWVQGTQVTVSS | low polyreactivity

Row | Sequence | polyreactivity (PSR sort gate)
23 | QVQLVESGGGLVQAGGTLRLSCAASGSTFRRYAMGWYRHAPVKERELVAAISGRGGSTSYADSVKGRFTISRDNAKNTVYLQMNSLKPEDTAVYYCAADDKYFYPGNGYWGQGTQVTVSS | high polyreactivity
24 | QVQLVESGGGLVQAGGSLRLSCAASGRIFLLNAMGWYRQAPGKERELVAAITSGGTTYYADSVKGRFTISRDNAKNTVYLQMNSLKPEDTAVYYCAAEAGYFTYGRRDYWGQGTQVTGSS | low polyreactivity
25 | QVQLVESGGGLVQAGGSLRLSCAPSGSIFAYYAMGWYRPAPGKERELVAAISKSGGRTYYADSVKGRFTISRDNAKNTVYLQMNSLKPEDTAVYYCAADGPGYTYDYWGQGTQVTVSS | high polyreactivity
26 | QVQLQESGCGLVQAGGSLRLSCAASGSISAVGAMGWYRQAPGKEREFAASVNWGTNTNYADSVKGRFTISRDNAKNTLYLLMNSLTPEDTAVYYCAVLPDWETRHDYWGHGTQVTVSS | low polyreactivity
27 | QVQLVESGGGLVQAGGSLRLSCAASGRIFSVNAMGWYRQAPGNERELVAAMTSGDSTNYADSVKGRFTISRDNAKNTVYLQMNSLKPEDNAVYYCNARGSQELWRRKWYHTEYDYWGQGTQVTVSS | low polyreactivity
28 | QVQIVESGGGLVQAGGSLRFSCADSGFTFYSYAIVWYRQAPGKERELVAAISWSGGSTYYADSVKGRFTISRDNAKNTVYLQMNSLKPEDTAVYFCNAPYIGEHYYWGQGTQVTVSS | high polyreactivity
29 | QVQLVESGGGLVQAGGSLRLSCAASGSIFPFYAMGWYRQAPGKERELVAAISYSGGRTYYADSVKGRFTISRDNAKNTVYLQMNSLKPEDTAVYYCAVDSGQKRRDYWGQGTQVTVSS | high polyreactivity
30 | QVQLVESGGGLVQAGGSLRLSCAASGSTFGWYAMGWFRQAPGKERELVAAITSGGSTKYADSVKGRFTISRDNAKNTVYLQMNSLKPEDTAVYYCATVRGYYSPVQVIGYFWGQGTQVTVSS | high polyreactivity
31 | QVQLVESGGGLVQAGGSLRLSCAASGFILVDYAMGWYRQAPGKERELVAAITYDGGSTYYADSVKGRFTISRDNAKNTVYLQMNSLKPEDTAVYYCAADYGYSQYILGQFRLEELDYWGQGTQVTVSS | low polyreactivity
32 | QVQLVESGGGLVQAGGSLRLSCAASGRIFVYYAMGWYRQAPGKERELVASISYSGASTYYADSVKGRFTISRDNAKNTVYLQMNSLKPEDTAVYYCNTDGDDFFHVIYDYWGQGTQVTVSS | low polyreactivity
33 | QVQLVESGGGLVQAGGSLRLSCAASGSIFDSYAMGWYRPEPGKERELVAAISSGGSTNYADSVKGRFTISRDNEKNTVYLQMNSLKPEDTAVYYCAADGSLDAYNYWGQGTQVTVSS | low polyreactivity
34 | QVQLVESGGGLVQAGGSLRLSCAASGTIIVWNAMGRYRQARGKERELVASITSGASTNYADSVKGRFTISRDNAKNTVYLQMNSLKPEDTAVYYCNAGPRRTISRSRLRSAPKYDYWGQGTQVTVSS | low polyreactivity
35 | QVQLVESGGGLVQAGGSLRLSCAASGGTFRLYAMGWYRQAPGKERELVAAITGSSGGTYYADSVKGRFTISRDNAKNTVYLQMNSLKPEDTAVYYCAARSSYWGQGTQVTVSS | low polyreactivity
36 | QVQLVESGGGLVQAGGSLRLSCAASGSTFDDNAMGWYRQAPGKERELVAVISSGGSTNYADSVKGRFTISRDNAKNTVYLQMNSLKPEDTAVYYCAAAKLTRRYRYGYWGQGTQVTVSS | high polyreactivity
37 | QVQLVESGGGLVQAGGSLRLSCAASGSIFTYYAMGWYRQAPGKERELVAAISYSGGTTYYADSVKGRFTISRDNAKNTVYLQMNSLKPEDTAVYYCNVDADYESQWLSVGYDYWGQGTQVTVSS | low polyreactivity
38 | QVQLVESGGGLVQEGGSLRLSCAASGRTFGYYVMGWYRQAPGKERELVAAISNTDSTYYADSVKGRFTISRDNAKNSVYLQMNSLKPEDTAVYYCDKDGRTVAYTWTRTHYYWGQGTQVTVSS | low polyreactivity
39 | QVQLVESGGGLVQAGGSLRLSCAASGSTFRYYAMGWYRQAPGKERELVAAIDRSGGNTYYADSVKGRFTISRDNAKNTVYLQMYSLKPEDTAVYYCNTASWRAQYYYWGQGTQVTVSS | high polyreactivity
40 | QVQLVESGGGLVQAGGSLRISCAASGSIFKKYAMGWYIQAPGKEREFVAAITRGTYYADSVKGRFTISRDNAKNTVYLQMNSLKPEDTAVYDCYREYWGRGYYRVRGEYDYWGQGTQVTVSS | low polyreactivity
41 | QVQLVESGGGLVQAGGSLRLSCAASGSIIRHNVMVWYRQAPGKERELVAAISGGGGRTYYADSVKGRFTISRDNAKNTVSLQMNRLKPEDTAVYYCNAYVGLSEGDYWGQGTQVTVSS | high polyreactivity
42 | QVQLVESGGGLDQAGVSLRLSCAASGSTFSANAMGWFRQAPGKERELVAAISSGDITYYADSVKGRFTISRDNAKNTVYLQMNSLKPEDTAVYYCAKYTRPTGNVDDGFEYWGQGTQVTVSS | low polyreactivity
43 | QVQLVESGGGLVQAGGSLRLICPASGRIFLTKAIGWYRPAPGIDRELVADISRGGSTYADSVKGRFTISSDNAKNTVYLQINSLKPEDTAVYYCAPDEYSPADSRTRYDYWGQGTQVSVSS | low polyreactivity
